Measured values from US20020031818A1, “Modification of Mdm2 activity” (priority 2000, published 2002).

Key:
[1] = test system: Mdm2; assay: In vivo ubiquitination of Mdm2 in EJ cells (HA-Ub, Mdm2 immunoprecipitation); type: cell-based, mouse; details: forced expression in EJ p19 null cells
Excerpt: (§1) FIG. 14A-14E. A. In vitro ubiquitination of Mdm2 is inhibited by p19^ARF. GST-Mdm2 was subjected to an in vitro ubiquitination reaction using purified forms of E1, E2 and Ub-HA in the presence of ATP. Addition of bacculovirus-purified p19^ARF at the indicated concentrations blocked Mdm2 ubiquitination. Glutathione bead-coupled GST-Mdm2 in its ubiquitinated or non-ubiquitinated forms was washed and analyzed on immunoblots using antibodies to HA (upper panel). Middle panel depicts the level of Mdm2 expression and the lower panel, the level of p19^ARF added to the reaction. B. p19^ARF expression increases Mdm2 self-ubiquitination in EJ cells. EJ cells were transfected with the indicated plasmids. Cells were harvested 36 h later and proteins ([…]) were immunoprecipitated using Mdm2 antibodies (2A10). Immunoprecipitated material was washed and proteins loaded onto 10% SDS-PAGE, followed by immunoblot analysis with HA-antibodies to detect covalent HA-ubiquitin conjugation to Mdm2 (upper panel). Middle panel depicts level of immunoprecipitated Mdm2. Lower panel represents western analysis of p19^ARF expression levels. C. In vitro ubiquitination of Mdm2 in the presence of p19^ARF and protein extracts. […] The level of p53 immunoprecipitated was monitored in immunoblots using polyclonal antibodies to p53 (middle). […]

[2] = test system: p53 transcriptional activity; assay: p21-luc luciferase reporter assay in EJ cells; type: cell-based, mouse; details: EJ cells transfected with p53, p19ARF and p21 promoter luciferase construct
Excerpt: as §1, with “(2A10).” for “(2A10). Immunoprecipitated material was washed and proteins loaded onto 10% SDS-PAGE, followed by immunoblot analysis with HA-antibodies to detect covalent HA-ubiquitin conjugation to Mdm2 (upper panel). Middle panel depicts level of immunoprecipitated Mdm2. Lower panel represents western analysis of p19^ARF expression levels. C. In vitro ubiquitination of Mdm2 in the presence of p19^ARF and protein extracts.”
Non-denaturing immunoprecipitation and luciferase assay p53/Mdm2 double null cells (Fuch et al., Oncogene 17:2543-2547, 1998), EJ, NIH3T3 mouse fibroblasts and TIG human fibroblasts were maintained in DMEM (Gibco) supplemented with 10% heat-inactivated fetal bovine serum and antibiotics in 5% CO2 Transfections were performed by lipofection (LipofectaminPlus, GIBCO). […] Luciferase activity was determined using the Promega luciferase assay system (Promega, Madison, Wis.). […]

B1: p19^ARF: Mdm2-regulating protein; in vitro translated, bacculovirus-expressed or transfected (protein)
chain: MGRRFLVTVRIQRAGRPLQERVFLVKFVRSRRPRTASCALAFVNMLLRLERILRRGPHRNPGPGDDDGQRSRSSSSAQLRCRFELRGPHYLLPPGARRSAGRLPGHAGGAARVRGSAGCARCLGSPAARLGPRAGTSRHRAIFAFRWVLFVFRWVVFVYRWERRPDRRA
degree of Mdm2 ubiquitination in vivo [1]: noticeable increase in the degree of Mdm2 ubiquitination | p53 transcriptional activity (p21-luc) [2]: corresponding increase
